# Assay results: patent publication US20250320295A1 (INHIBRX BIOSCIENCES, published 2025)
# Where a chain is given by its changes, count along the chain named. Numbers in names are those of the source.
# B1: hzB7v21-xELL-P329G-KiH Fc-IL-2 mutant (Fc fusion)
# chain 1: QVQLVQSGGGEVQPGGSLRLSCAASGFTFDDYAMSWVRQAPGKGLEWVSTITWDAEGTDYAESVKGRFTISRDNAKNTVYLQMSSLRAEDTAVYYCAKGSPELQYDTWGQGTLVTVKPDKTHTCPPCPAPGGPSVFLFPPKPKDTLMISRTPEVTCVVVDVSHEDPEVKFNWYVDGVEVHNAKTKPREEQYNSTYRVVSVLTVLHQDWLNGKEYKCKVSNKALGAPIEKTISKAKGQPREPQVCTLPPSRDELTKNQVSLSCAVKGFYPSDIAVEWESNGQPENNYKTTPPVLDSDGSFFLVSKLTVDKSRWQQGNVFSCSVMHEALHNRYTQKSLSLSPG
# chain 2: B1 chain 1 with C244Y, S249C, S261W, A263L, V302Y, R330H
# notes: Knob-in-hole heterodimer: VHH on the N-terminus of each Fc, mutant IL-2 only on the knob Fc; not shown: mutant, attenuated IL-2 fused to the C-terminus of the knob Fc
# B2: hzB7v20-xELL-P329G-KiH Fc-IL-2 mutant (Fc fusion)
# chain 1: B1 chain 1 with Q1E
# chain 2: B1 chain 1 with Q1E, C244Y, S249C, S261W, A263L, V302Y, R330H
# notes: as for B1
# B3: hzB7v19-xELL-P329G-KiH Fc-IL-2 mutant (Fc fusion)
# chain 1: B1 chain 1 with Q6E
# chain 2: B1 chain 1 with Q6E, C244Y, S249C, S261W, A263L, V302Y, R330H
# notes: as for B1
# B4: hzB7v26-xELL-P329G-KiH Fc-IL-2 mutant (Fc fusion)
# chain 1: B1 chain 1 with E56G
# chain 2: B1 chain 1 with E56G, C244Y, S249C, S261W, A263L, V302Y, R330H
# notes: as for B1
# B5: hzB7v23-xELL-P329G-KiH Fc-IL-2 mutant (Fc fusion)
# chain 1: B1 chain 1 with D31S
# chain 2: B1 chain 1 with D31S, C244Y, S249C, S261W, A263L, V302Y, R330H
# notes: as for B1
# B6: hzB7v25-xELL-P329G-KiH Fc-IL-2 mutant (Fc fusion)
# chain 1: B1 chain 1 with D54S
# chain 2: B1 chain 1 with D54S, C244Y, S249C, S261W, A263L, V302Y, R330H
# notes: as for B1
# B7: hzB7v24-xELL-P329G-KiH Fc-IL-2 mutant (Fc fusion)
# chain 1: B1 chain 1 with D30S, D31S
# chain 2: B1 chain 1 with D30S, D31S, C244Y, S249C, S261W, A263L, V302Y, R330H
# notes: as for B1
# B8: hzB7v27-xELL-P329G-KiH Fc-IL-2 mutant (Fc fusion)
# chain 1: B1 chain 1 with D59Y
# chain 2: B1 chain 1 with D59Y, C244Y, S249C, S261W, A263L, V302Y, R330H
# notes: as for B1
# B9: hzB7v28-xELL-P329G-KiH Fc-IL-2 mutant (Fc fusion)
# chain 1: B1 chain 1 with E62A, S63P
# chain 2: B1 chain 1 with E62A, S63P, C244Y, S249C, S261W, A263L, V302Y, R330H
# notes: as for B1
# B10: hzB7v30-xELL-KiH Fc-IL-2 mutant (Fc fusion)
# chain 1: QVQLVQSGGGEVQPGGSLRLSCAASGFTFDDYAMSWVRQAPGKGLEWVSTITWDAGGTDYAAPVKGRFTISRDNAKNTVYLQMSSLRAEDTAVYYCAKGSPELQYDTWGQGTLVTVKPDKTHTCPPCPAPGGPSVFLFPPKPKDTLMISRTPEVTCVVVDVSHEDPEVKFNWYVDGVEVHNAKTKPREEQYNSTYRVVSVLTVLHQDWLNGKEYKCKVSNKALPAPIEKTISKAKGQPREPQVCTLPPSRDELTKNQVSLSCAVKGFYPSDIAVEWESNGQPENNYKTTPPVLDSDGSFFLVSKLTVDKSRWQQGNVFSCSVMHEALHNRYTQKSLSLSPGK
# chain 2: B1 chain 1 with E56G, E62A, S63P, G224P, C244Y, S249C, S261W, A263L, V302Y, R330H
# notes: as for B1
# B11: hzB7v33-xELL-KiH Fc-IL-2 mutant (Fc fusion)
# chain 1: B10 chain 1 with D54S, G56E, D59Y
# chain 2: QVQLVQSGGGEVQPGGSLRLSCAASGFTFDDYAMSWVRQAPGKGLEWVSTITWSAEGTYYAAPVKGRFTISRDNAKNTVYLQMSSLRAEDTAVYYCAKGSPELQYDTWGQGTLVTVKPDKTHTCPPCPAPGGPSVFLFPPKPKDTLMISRTPEVTCVVVDVSHEDPEVKFNWYVDGVEVHNAKTKPREEQYNSTYRVVSVLTVLHQDWLNGKEYKCKVSNKALPAPIEKTISKAKGQPREPQVYTLPPCRDELTKNQVSLWCLVKGFYPSDIAVEWESNGQPENNYKTTPPVLDSDGSFFLYSKLTVDKSRWQQGNVFSCSVMHEALHNHYTQKSLSLSPG
# notes: as for B1
# B12: hzB7v37-xELL-KiH Fc-IL-2 mutant (Fc fusion)
# chain 1: B10 chain 1 with Q13K, D59Y
# chain 2: B11 chain 2 with Q13K, S54D, E56G
# notes: as for B1
# B13: hzB7v34-xELL-KiH Fc-IL-2 mutant (Fc fusion)
# chain 1: B10 chain 1 with D54S
# chain 2: B11 chain 2 with E56G, Y59D
# notes: as for B1
# B14: hzB7v39-xELL-KiH Fc-IL-2 mutant (Fc fusion)
# chain 1: B10 chain 1 with Q13K, D54S, G56E, D59Y
# chain 2: B11 chain 2 with Q13K
# notes: as for B1
# B15: hzB7v29-xELL-Fc (Fc fusion)
# chain: B10 chain 1 with G56E, D59Y, C244Y, S261T, A263L, V302Y, R330H
# notes: Homodimeric VHH-human IgG1 Fc xELL fusion
# B16: hzB7v35-xELL-Fc (Fc fusion)
# chain: B10 chain 1 with Q13K, G56E, D59Y, C244Y, S261T, A263L, V302Y, R330H
# notes: as for B15
# B17: hzB7v41-xELL-Fc (Fc fusion)
# chain: B10 chain 1 with D59Y, K117R, C244Y, S261T, A263L, V302Y, R330H
# notes: as for B15
# Biological target: T1, Human CD8a (human, UniProt P01732 22-235)
# T1 construct: also called CD8α; human CD8a-FL
# Assay: flow cytometry, HEK293F cells transfected with human CD8a (citrine+ gate)
# Method: Binding of polypeptides comprising a humanized CD8a-binding VHH domain, an Fc region, and, in certain polypeptides, a mutated, attenuated IL-2 fused to the C-terminus of the Fc region, was assessed by flow cytometry on HEK293F cells transiently transfected with a plasmid encoding human CD8α or CD8b chains. […] Complexes or polypeptides that are not labeled “KiH” form homodimers under physiologic conditions. The transfected cells were plated in a 96-well plate at 50,000 cells per well in FACS buffer (PBS, 1% BSA, 0.1% NaN₃, pH 7.4). Test polypeptides were then diluted to 2× the final concentration of 500 nM, and a 6-fold serial dilution was made. FACS buffer with no polypeptide was used as a secondary antibody-only control. Test polypeptides were added to an equal volume of cells, and assay plates were incubated for 30 minutes at 4° C. After washing twice with 150 μL of FACS buffer per well, the cells were resuspended in FACS buffer with a fluorescently-labeled anti-human Fc antibody diluted 1:1000 to detect CD8 binding. Assay plates were incubated at 4° C. for 30 minutes. After one additional wash with 150 μL of FACS buffer, polypeptide bound to CD8 was detected by flow cytometry on cells positive for the transfection marker citrine. Binding was measured on these cell populations as mean fluorescence intensity (MFI) at 647 nm. Flow cytometric detection was performed on an IntelliCyt iQue Screener Plus. The data were plotted and analyzed using GraphPad Prism analysis software.
# T1 sequence (P01732 22-235): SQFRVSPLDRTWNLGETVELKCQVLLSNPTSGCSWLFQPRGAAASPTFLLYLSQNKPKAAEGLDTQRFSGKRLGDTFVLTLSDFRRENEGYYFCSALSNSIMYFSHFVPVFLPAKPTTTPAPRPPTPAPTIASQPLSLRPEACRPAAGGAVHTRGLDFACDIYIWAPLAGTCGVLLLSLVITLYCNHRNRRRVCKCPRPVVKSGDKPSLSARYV
Kd,Bmax (MFI),Binder
5.23 nM,,B1
4.48 nM,,B2
7.5 nM,,B3
4.55 nM,1.52e+07 MFI,B4
3.9 nM,1.43e+07 MFI,B5
3.28 nM,1.45e+07 MFI,B6
6.54 nM,1.28e+07 MFI,B7
3.18 nM,1.45e+07 MFI,B8
2.84 nM,1.37e+07 MFI,B9

# Biological target: T1, Human CD8a
# Assay: flow cytometry, isolated human T cells, PI-CD4- gate (table title says transfected HEK293F cells)
# Method: Binding of polypeptides comprising a humanized CD8a-binding VHH domain, an Fc region, and, in certain polypeptides, a mutated, attenuated IL-2 fused to the C-terminus of the Fc region, was assessed by flow cytometry on isolated human T cells. […] Complexes or polypeptides that are not labeled “KiH” form homodimers under physiologic conditions. The isolated cells were plated in a 96-well plate at 50,000 cells per well in FACS buffer (PBS, 1% BSA, 0.1% NaN₃, pH 7.4). Test polypeptides were then diluted to 2× the final concentration of 200 nM, and a 5-fold serial dilution was made. FACS buffer with no polypeptide was used as a secondary antibody-only control. Test polypeptides were added to an equal volume of cells, and assay plates were incubated for 30 minutes at 4° C. After washing twice with 150 μL of FACS buffer per well, the cells were resuspended in FACS buffer with a fluorescently-labeled anti-human IgG antibody diluted 1:1000 to detect CD8α binding and fluorescently labeled anti-CD4 antibody (clone OKT4, 1:200). Propidium iodide (PI) was added at 1:2000 to distinguish live cells from dead cells. Assay plates were incubated at 4° C. for 30 minutes. After one additional wash with 150 μL of FACS buffer, polypeptide bound to CD8α was detected by flow cytometry on PI-CD4− and on PI-CD4+ cells. Binding was measured on these cell populations as mean fluorescence intensity (MFI) at 647 nm. Flow cytometric detection was performed on an ACEA Biosciences Novocyte-Quanteon Flow Cytometer. The data were plotted and analyzed using GraphPad Prism analysis software.
Bmax (MFI),Kd,Binder
247000 MFI,0.0943 nM,B10
,0.139 nM,B11
272000 MFI,0.0884 nM,B12
76100 MFI,4.05 nM,B13
,0.148 nM,B14

# Biological target: T2, Cynomolgus monkey CD8a (cynomolgus monkey)
# T2 construct: whole, on cells; On transfected HEK293F cells (full length) or natively on cynomolgus PBMC T cells; also called cynomolgus CD8a-FL; cynomolgus monkey CD8α
# Assay: flow cytometry, cynomolgus PBMC, PI-CD3+CD4- gate
# Method: Binding of four polypeptides comprising a humanized CD8a-binding VHH domain fused to an xELL fc region was assessed by flow cytometry on isolated human T cells and on isolated human or cynomolgus monkey peripheral blood mononuclear cells (PBMC). The isolated cells were plated in a 96-well plate at 200,000 cells per well for cynomolgus monkey PBMC, and 100,000 cells per well for human T cells in FACS buffer (PBS, 1% BSA, 0.1% NaN₃, pH 7.4). […] FACS buffer alone was used as a secondary antibody-only control. Polypeptide dilutions were added to an equal volume of cells, and assay plates were incubated for 30 minutes at 4° C. After washing twice with 150 μL of FACS buffer per well, the cells were resuspended in FACS buffer with a fluorescently labeled anti-human IgG antibody diluted 1:1000 to detect CD8α binding, fluorescently labeled anti-CD3 antibody (clone SP34.2, 1:50, for PBMC preparations only), and fluorescently labeled anti-CD4 antibody (clone OKT4, 1:100). Propidium iodide (PI) was added at 1:2000 to distinguish live cells from dead cells. Assay plates were incubated at 4° C. for 30 minutes. After one additional wash with 150 μL of FACS buffer CD8α binding was detected by flow cytometry on PI−(CD3+) CD4− cells. Binding was measured on these cell populations as mean fluorescence intensity (MFI) at 647 nm. Flow cytometric detection was performed on an ACEA Biosciences Novocyte-Quanteon Flow Cytometer. The data were plotted and analyzed using GraphPad Prism analysis software. The results are shown in Table 12 and 13 and in FIGS. 10A-D.
row,Kd,Binder
1,0.0317 nM,B15
2,0.0236 nM,B16
3,0.0499 nM,B17
